Test results published in PMC7305236 (Nature Communications, 2020).
No end group written: not given here.

B1: Nociceptin 1-13-NH2 (peptide)
peptide: FGGFTGARKSARK-NH2
B2: Dynorphin A 2-17 (peptide)
peptide: GGFLRRIRPKLKWDNQ
B3: Dynorphin A 2-13-NH2 (peptide)
peptide: GGFLRRIRPKLK-NH2
B4: Endomorphin-1 (peptide)
chain: YPWF-NH2
B5: Adrenorphin (peptide)
peptide: YGGFMRRV-NH2
B6: Dynorphin B (peptide)
peptide: YGGFLRRQFKVVT
B7: Dynorphin A (peptide)
peptide: YGGFLRRIRPKLKWDNQ
B8: BAM22 (peptide)
peptide: YGGFMRRVGRPEWWMDYQKRYG
B9: LIH383 (peptide)
peptide: FGGFMRRK-NH2
B10: [Phe1Ψ(CH2-NH)-gly2]nociceptin-(1-13)-NH2 (peptide)
peptide: FGGFTGARKSARK-NH2
modifications: also: ψ(CH2-NH) bond between Phe1 and Gly2
B11: LIH383-Cy5 (peptide)
peptide: FGGFMRRK(Cy5)
B12: Nociceptin (peptide)
peptide: FGGFTGARKSARKLANQ
B13: LIH383 (designed binder)
peptide: FGGFMRRK-NH2

Each binder was assayed against T1, atypical chemokine receptor ACKR3 (formerly CXCR7) (human, UniProt P25106 1-362) (assay: flow cytometry on cells).
T1 sequence (P25106 whole entry): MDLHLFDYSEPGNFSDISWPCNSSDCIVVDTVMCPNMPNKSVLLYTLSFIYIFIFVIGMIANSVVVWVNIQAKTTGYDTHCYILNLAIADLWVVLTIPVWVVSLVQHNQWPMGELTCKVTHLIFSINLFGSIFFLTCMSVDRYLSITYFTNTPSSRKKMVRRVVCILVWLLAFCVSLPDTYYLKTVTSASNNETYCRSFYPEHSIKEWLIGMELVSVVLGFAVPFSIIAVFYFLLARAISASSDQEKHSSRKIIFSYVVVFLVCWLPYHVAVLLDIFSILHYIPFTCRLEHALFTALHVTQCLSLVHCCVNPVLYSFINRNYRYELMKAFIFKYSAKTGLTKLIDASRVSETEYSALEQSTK
B1 gave an IC50 greater than 10000 nM.
B2 showed an IC50 of roughly 10000 nM.
In the case of B3, the IC50 is reported as greater than 10000 nM.
B4 showed an IC50 greater than 10000 nM.
For B5, the IC50 was 41.2 nM.
With B6 the IC50 was roughly 1000 nM.
With B7 the IC50 was 85.3 nM.
B8 showed an IC50 of 31.3 nM.
B9 showed an IC50 of 4 nM.
In the case of B10, the IC50 is reported as greater than 10000 nM.

Target: T1, atypical chemokine receptor ACKR3 …
Assay: flow cytometry on cells
Remark: another data set of the same source
B11 was tested, and the EC50 was 6.65 nM.

The binders below were run against mouse ACKR3 (mouse, UniProt P56485 1-362) (assay: cell-based or functional assay).
mouse ACKR3, sequence (P56485 whole entry): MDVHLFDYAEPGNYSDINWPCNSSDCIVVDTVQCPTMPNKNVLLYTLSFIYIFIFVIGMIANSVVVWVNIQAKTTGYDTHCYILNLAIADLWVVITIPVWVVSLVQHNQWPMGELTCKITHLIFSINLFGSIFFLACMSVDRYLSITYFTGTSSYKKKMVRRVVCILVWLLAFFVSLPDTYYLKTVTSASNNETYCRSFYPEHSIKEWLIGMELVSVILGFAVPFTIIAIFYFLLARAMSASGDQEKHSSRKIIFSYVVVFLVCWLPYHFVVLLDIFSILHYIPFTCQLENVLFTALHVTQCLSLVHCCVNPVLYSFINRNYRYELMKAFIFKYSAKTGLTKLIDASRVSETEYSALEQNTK
With B9 the “Supplementary Table 6: EC50 of β-arrestin-1 recruitment to mACKR3, U87 cells” value was 2.31 nM.

The binders below were run against T1, atypical chemokine receptor ACKR3 … (assay: cell-based or functional assay).
In the case of B5, the “Supplementary Table 4: EC50 of β-arrestin-1 recruitment to ACKR3, U87 cells” value is reported as 109 nM.

These binders were tested against delta opioid receptor (DOR) (human, UniProt P41143 1-372) (assay: cell-based or functional assay).
delta opioid receptor (DOR), sequence (P41143 whole entry, stated change not applied): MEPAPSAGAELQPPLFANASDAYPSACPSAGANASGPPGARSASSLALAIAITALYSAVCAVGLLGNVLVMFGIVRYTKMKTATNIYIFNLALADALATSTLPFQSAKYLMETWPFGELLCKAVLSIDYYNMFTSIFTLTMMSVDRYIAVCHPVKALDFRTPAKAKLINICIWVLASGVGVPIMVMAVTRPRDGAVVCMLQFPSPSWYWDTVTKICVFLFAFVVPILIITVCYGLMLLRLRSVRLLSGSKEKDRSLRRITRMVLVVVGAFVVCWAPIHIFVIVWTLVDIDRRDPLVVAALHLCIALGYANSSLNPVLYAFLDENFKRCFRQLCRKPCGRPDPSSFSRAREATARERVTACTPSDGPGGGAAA
B5 was tested, and the “Supplementary Table 4: EC50 of β-arrestin-1 recruitment to DOR, U87 cells” value was 323 nM.

The binders below were run against kappa opioid receptor (KOR) (human, UniProt P41145 1-380) (assay: cell-based or functional assay).
kappa opioid receptor (KOR), sequence (P41145 whole entry): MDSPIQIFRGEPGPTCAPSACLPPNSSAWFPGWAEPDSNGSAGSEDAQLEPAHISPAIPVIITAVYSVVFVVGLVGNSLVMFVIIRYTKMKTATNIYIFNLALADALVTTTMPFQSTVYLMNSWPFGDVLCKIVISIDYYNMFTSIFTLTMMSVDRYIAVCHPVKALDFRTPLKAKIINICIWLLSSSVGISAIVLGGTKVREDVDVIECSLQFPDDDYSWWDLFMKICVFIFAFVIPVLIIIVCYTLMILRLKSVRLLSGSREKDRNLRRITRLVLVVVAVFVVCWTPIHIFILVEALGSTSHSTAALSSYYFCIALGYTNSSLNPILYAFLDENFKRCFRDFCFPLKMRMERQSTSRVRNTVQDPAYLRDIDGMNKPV
In the case of B5, the “Supplementary Table 4: EC50 of β-arrestin-1 recruitment to KOR, U87 cells” value is reported as 65.6 nM.

These binders were tested against mu opioid receptor (MOR) (human, UniProt P35372 1-400) (assay: cell-based or functional assay).
mu opioid receptor (MOR), sequence (P35372 whole entry): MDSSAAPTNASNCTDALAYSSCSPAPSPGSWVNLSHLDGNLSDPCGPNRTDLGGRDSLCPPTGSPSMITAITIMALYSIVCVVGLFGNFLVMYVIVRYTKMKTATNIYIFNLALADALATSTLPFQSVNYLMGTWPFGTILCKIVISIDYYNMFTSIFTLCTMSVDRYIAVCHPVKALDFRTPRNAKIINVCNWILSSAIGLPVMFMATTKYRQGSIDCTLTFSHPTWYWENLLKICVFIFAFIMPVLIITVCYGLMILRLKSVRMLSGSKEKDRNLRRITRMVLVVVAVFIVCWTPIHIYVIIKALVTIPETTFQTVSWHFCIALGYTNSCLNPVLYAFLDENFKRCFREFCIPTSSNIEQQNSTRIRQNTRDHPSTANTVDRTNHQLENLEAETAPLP
In the case of B5, the “Supplementary Table 4: EC50 of β-arrestin-1 recruitment to MOR, U87 cells” value is reported as 101 nM.

Target: T1, atypical chemokine receptor ACKR3 …
Assay: cell-based or functional assay
Remark: another data set of the same source
In the case of B1, the “Supplementary Table 9: EC50 of β-arrestin-1 recruitment to ACKR3, CHO cells” value (shortened to “Supplementary Table 9: EC50 … CHO cells”) is reported as roughly 10000 nM, the “Supplementary Table 9: EC50 of β-arrestin-1 recruitment to ACKR3, HEK cells” value (from here on “Supplementary Table 9: EC50 … HEK cells”) is reported as roughly 10000 nM and the “Supplementary Table 9: EC50 of β-arrestin-2 recruitment to ACKR3, U87 cells” value (“Supplementary Table 9: EC50 … U87 cells” for short) is reported as roughly 10000 nM.
For B12, the “Supplementary Table 9: EC50 … CHO cells” value was roughly 10000 nM and the “Supplementary Table 9: EC50 … U87 cells” value was greater than 10000 nM.
In the case of B5, the “Supplementary Table 9: EC50 … CHO cells” value is reported as 22.5 nM, the “Supplementary Table 9: EC50 … HEK cells” value is reported as 72.6 nM and the “Supplementary Table 9: EC50 … U87 cells” value is reported as 81.5 nM.
In the case of B6, the “Supplementary Table 9: EC50 … CHO cells” value is reported as roughly 1000 nM, the “Supplementary Table 9: EC50 … HEK cells” value is reported as 673 nM and the “Supplementary Table 9: EC50 … U87 cells” value is reported as 908 nM.
For B7, the “Supplementary Table 9: EC50 … HEK cells” value was 110 nM and the “Supplementary Table 9: EC50 … U87 cells” value was 97.6 nM.
For B8, the “Supplementary Table 9: EC50 … CHO cells” value was 12.5 nM, the “Supplementary Table 9: EC50 … HEK cells” value was 23.2 nM and the “Supplementary Table 9: EC50 … U87 cells” value was 22.9 nM.
B10 was tested, and the “Supplementary Table 9: EC50 … CHO cells” value was roughly 5000 nM, the “Supplementary Table 9: EC50 … HEK cells” value was 3760 nM and the “Supplementary Table 9: EC50 … U87 cells” value was 4340 nM.

These binders were tested against ACKR3 C-terminally tagged with SmBiT (human, UniProt P25106 1-362) (assay: cell-based or functional assay).
ACKR3 C-terminally tagged with SmBiT, sequence (P25106 whole entry): as the sequence (P25106 whole entry) above
For B13, the “β-arrestin-1 recruitment (NanoBiT, U87 cells): EC50” value was 0.61 nM.
